# Results taken from publication PMC7666136 (2020).
# B1: eGFP-53BP1 (wild-type TP53-binding protein 1 tagged with enhanced green fluorescent protein) [not stated] / itself (parent complex)
# chain: MDPTGSQLDSDFSQQDTPCLIIEDSQPESQVLEDDSGSHFSMLSRHLPNLQTHKENPVLDVVSNPEQTAGEERGDGNSGFNEHLKENKVADPVDSSNLDTCGSISQVIEQLPQPNRTSSVLGMSVESAPAVEEEKGEELEQKEKEKEEDTSGNTTHSLGAEDTASSQLGFGVLELSQSQDVEENTVPYEVDKEQLQSVTTNSGYTRLSDVDANTAIKHEEQSNEDIPIAEQSSKDIPVTAQPSKDVHVVKEQNPPPARSEDMPFSPKASVAAMEAKEQLSAQELMESGLQIQKSPEPEVLSTQEDLFDQSNKTVSSDGCSTPSREEGGCSLASTPATTLHLLQLSGQRSLVQDSLSTNSSDLVAPSPDAFRSTPFIVPSSPTEQEGRQDKPMDTSVLSEEGGEPFQKKLQSGEPVELENPPLLPESTVSPQASTPISQSTPVFPPGSLPIPSQPQFSHDIFIPSPSLEEQSNDGKKDGDMHSSSLTVECSKTSEIEPKNSPEDLGLSLTGDSCKLMLSTSEYSQSPKMESLSSHRIDEDGENTQIEDTEPMSPVLNSKFVPAENDSILMNPAQDGEVQLSQNDDKTKGDDTDTRDDISILATGCKGREETVAEDVCIDLTCDSGSQAVPSPATRSEALSSVLDQEEAMEIKEHHPEEGSSGSEVEEIPETPCESQGEELKEENMESVPLHLSLTETQSQGLCLQKEMPKKECSEAMEVETSVISIDSPQKLAILDQELEHKEQEAWEEATSEDSSVVIVDVKEPSPRVDVSCEPLEGVEKCSDSQSWEDIAPEIEPCAENRLDTKEEKSVEYEGDLKSGTAETEPVEQDSSQPSLPLVRADDPLRLDQELQQPQTQEKTSNSLTEDSKMANAKQLSSDAEAQKLGKPSAHASQSFCESSSETPFHFTLPKEGDIIPPLTGATPPLIGHLKLEPKRHSTPIGISNYPESTIATSDVMSESMVETHDPILGSGKGDSGAAPDVDDKLCLRMKLVSPETEASEESLQFNLEKPATGERKNGSTAVAESVASPQKTMSVLSCICEARQENEARSEDPPTTPIRGNLLHFPSSQGEEEKEKLEGDHTIRQSQQPMKPISPVKDPVSPASQKMVIQGPSSPQGEAMVTDVLEDQKEGRSTNKENPSKALIERPSQNNIGIQTMECSLRVPETVSAATQTIKNVCEQGTSTVDQNFGKQDATVQTERGSGEKPVSAPGDDTESLHSQGEEEFDMPQPPHGHVLHRHMRTIREVRTLVTRVITDVYYVDGTEVERKVTEETEEPIVECQECETEVSPSQTGGSSGDLGDISSFSSKASSLHRTSSGTSLSAMHSSGSSGKGAGPLRGKTSGTEPADFALPSSRGGPGKLSPRKGVSQTGTPVCEEDGDAGLGIRQGGKAPVTPRGRGRRGRPPSRTTGTRETAVPGPLGIEDISPNLSPDDKSFSRVVPRVPDSTRRTDVGAGALRRSDSPEIPFQAAAGPSDGLDASSPGNSFVGLRVVAKWSSNGYFYSGKITRDVGAGKYKLLFDDGYECDVLGKDILLCDPIPLDTEVTALSEDEYFSAGVVKGHRKESGELYYSIEKEGQRKWYKRMAVILSLEQGNRLREQYGLGPYEAVTPLTKAADISLDNLVEGKRKRRSNVSSPATPTASSSSSTTPTRKITESPRASMGVLSGKRKLITSEEERSPAKRGRKSATVKPGAVGAGEFVSPCESGDNTGEPSALEEQRGPLPLNKTLFLGYAFLLTMATTSDKLASRSKLPDGPTGSSEEEEEFLEIPPFNKQYTESQLRAGAGYILEDFNEAQCNTAYQCLLIADQHCRTRKYFLCLASGIPCVSHVWVHDSCHANQLQNYRNYLLPAGYSLEEQRILDWQPRENPFQNLKVLLVSDQQQNFLELWSEILMTGGAASVKQHHSSAHNKDIALGVFDVVVTDPSCPASVLKCAEALQLPVVSQEWVIQCLIVGERIGFKQHPKYKHDYVSH
# Variants of: B1
# Test: Number and brightness (NB) analysis of fluorescence fluctuation spectroscopy in live DIvA cells; live DIvA cell nuclei, transient transfection, N = 10 cells, two biological replicates; value is the box median; parent: 0.22; read off a plot
row,screen value,Variant
1,~0.06 fraction (pixels),"chain 1 Y1258A, chain 1 Y1259A"

# Variants of: B1
# Test: Number and brightness (NB) analysis of fluorescence fluctuation spectroscopy in live DIvA cells; single representative cell ROI; value is the top of the teal (monomer) segment of the stacked bar, the rest of the bar being dimer (green); parent: 0.79; read off a plot
row,screen value,Variant
1,~0.96 fraction (pixels),"chain 1 Y1258A, chain 1 Y1259A"
